The values that follow come from patent publication US11397178B2, “Method of predicting progression of idiopathic pulmonary fibrosis and monitoring of therapeutic efficacy” (Cedars-Sinai Medical Center, priority 2016, dated 2022).

For one series, the system named is CCR10+ cells. The experiment in a line: Humanized NSG-GFP mice: KB004 / KB243 treatment (GFP IHC, flow cytometry). It is filed as in vivo, human IPF cells in NSG-GFP mice. To be noted: 5 mg/kg i.p. twice a week for 5 weeks, day 35. How it is done:
NSG-GFP mice. (A) IPF cells were injected intravenously into NSG-GFP mice, and 2 hours later groups of mice received either 5 mg/kg of KB004 (an afucosylated anti-EphA3 mAb) or KB243 (an isotype control) via intraperitoneal injection. Both groups of mice were injected twice a week with the antibodies for 5 weeks after which lungs and spleen were collected for histological and/or flow cytometric analysis. (B-C) Depicted are representative images of GFP-stained NSG mouse lung (red indicates the presence of transgenic GFP mouse cells) at day 35 after IPF lung injection in both the KB243 (B) and KB004 (C) treatment groups. (D) Flow cytometric dot plots depicting GFP^− staining for human-CD45, CCR10 and/or EpCAM proteins. Representative dot plots for (from left to right) GFP^− cells expressing CD45, CD45, and CCR10 or CCR10 alone in humanized NSG-GFP mice treated either with KB243 (top) or KB004 (bottom) antibodies are shown. (E-F) The average number of GFP^− CD45^+ CCR10^+ (E) and GFP^− Lin^− CCR10^+ (F) cells in non-humanized and humanized NSG mice treated with either KB243 or KB004. Data shown are mean±sem n=4-5/group. *p≤0.05
Six to eight-week old, female, pathogen free NOD Cg-Prkdc^SCID IL2rg^Tm1wil Szi (NSG) or NOD.Cg-Prkdc^SCID IL2rg^tm1Wil Tg(CAG-EGFP) 10sb/SzJ (NSG-GFP) were purchased from Jackson Laboratories and housed in Cedars-Sinai Medical Center's high isolation animal rooms. […] All NSG groups were monitored daily and mice were sacrificed if there is evidence for morbidity such as weight loss of more than 20%, loss of fur, paralysis and/or lack of responsiveness when handled.
Murine lung cellular suspensions were generated using a mouse lung dissociation kit, C-tubes, and a GentleMacs dissociator (Miltenyi Biotech). […] Unstained, isotype controls, fluorescent minus one controls and staining in non-humanized murine lung and spleen suspensions were utilized to gate out any non-specific antibody binding and background fluorescence. […]
Background: Flow cytometry measures light scatter and fluorescence of single cells or particles in a stream.

For series [1], the system named is murine IL-2, IL-10, IL-12-p70, and TNFα. Nature of the series: Bioplex analysis of mouse cytokines in BAL of humanized NSG mice. It is filed as in vivo. Conditions: days 0 to 35 or days 35 to 63. On the procedure: (A-E) Murine IL-2 (A), IL-10 (B), IL12-p70 (C), IFNγ, and TNFα in the BAL from non-humanized and humanized NSG mice treated with KB004 or KB243 from days 0 to 35, or from days 35 to 63 after IPF cell injection. Mouse cytokines were measured using Bioplex and data shown are mean±sem; n=5-10/group. ****p≤0.0001
Lungs in non-humanized and humanized NSG mice were washed using 1 ml of saline solution, and the resulting BAL was centrifuged to remove cells and the supernatants were stored at −80° C. until analysis. Mouse cytokines in the BAL were measured using predesigned Bioplex assays (Bio-Rad) as recommended by the manufacturer, […]

The next series deals with EphA3 expressing cells. Nature of the series: IPF explant cell challenged NOD/SCID mice treated with anti-EphA3 antibody. It is filed as in vivo. To be noted: listed as afucosylated anti-EphA3 antibody. The source says:
IHC analysis indicated the presence of these cells near honeycombing cysts, in the interstitium and their expansion in IPF lung biopsies and explants relative to normal lungs.

Entries after “also recorded” stand apart in the source; their conditions may differ.

B1: KB004: afucosylated anti-EphA3 mAb supplied by Kalobios; targets EphA3+ cells via antibody-dependent cell-mediated cytotoxicity (ADCC) (antibody, chains of the INN, looked up, V domains shown)
VH: QVQLVQSGAEVKKPGASVKVSCKASGYTFTGYWMNWVRQAPGQGLEWMGDIYPGSGNTNYDEKFQGRVTMTRDTSISTAYMELSRLRSDDTAVYYCARGGYYEDFDSWGQGTTVTVSS
VL: DIQMTQSPSFLSASVGDRVTITCRASQGIISYLAWYQQKPEKAPKRLIYAASSLQSGVPSRFSGSGSGTEFTLTISSLQPEDFATYYCGQYANYPYTFGQGTKLEIK
For B1, in the series with CCR10+ cells, the “GFP cells in lung by IHC, KB004 compared with KB243” value is recorded as “fewer GFP cells”. Also, in the series with CCR10+ cells (flow cytometry), the “number of CD45+ CCR10+ cells compared with KB243 group” value is on record as “significantly reduced” and the “number of Lin- CCR10+ cells compared with KB243 group” value was “significantly reduced”. In addition, the “inflammation in the mouse lung (BAL murine cytokines)” value in series [1] is “neither KB243 or KB004 treatments in humanized NSG mice evoked inflammation”. In addition, the “fibrotic response / lung remodeling” value in the series on EphA3 expressing cells is “ameliorated the fibrotic response; also recorded: ameliorated lung remodeling”.
